Where “and” joins values, the source holds several entries; their conditions need not be identical. Equal values may be shown once.
T1: human Ig1,2 TrkA (recombinant D4-D5 domain of human TrkA receptor) (human, UniProt P04629 191-392)
T1 construct: also called hTrkA Ig1,2; TrkA Ig1,2
T1 chain: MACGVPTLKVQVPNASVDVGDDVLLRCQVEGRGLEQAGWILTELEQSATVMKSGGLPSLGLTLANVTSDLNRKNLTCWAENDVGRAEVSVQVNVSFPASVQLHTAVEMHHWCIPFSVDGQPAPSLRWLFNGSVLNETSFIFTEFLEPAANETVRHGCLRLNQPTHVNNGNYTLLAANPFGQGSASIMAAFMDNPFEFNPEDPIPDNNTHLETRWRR

T2: human p75 immunoadhesin (human; Camelus dromedarius, UniProt P08138 29-250)
T2 construct: extracellular domain; also called hp75-Fc; p75NTR immunoadhesin; not shown: Fc portion (immunoglobulin heavy chain constant region) of IgG2a camel antibody (Camelus dromedarius)
T2 sequence (looked up): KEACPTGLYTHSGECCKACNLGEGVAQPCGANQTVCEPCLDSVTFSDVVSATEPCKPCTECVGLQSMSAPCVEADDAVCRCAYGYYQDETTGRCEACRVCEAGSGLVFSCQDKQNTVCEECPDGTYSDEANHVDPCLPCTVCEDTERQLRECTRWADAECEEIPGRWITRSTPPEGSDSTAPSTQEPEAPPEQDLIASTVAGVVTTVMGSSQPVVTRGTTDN


Assays:
[1] = molecular target: T3, human TrkA receptor (native, on TF-1 cells) (human, UniProt P04629 33-796); assay: cell-based or functional assay
T3 sequence (P04629 33-796 limits assumed): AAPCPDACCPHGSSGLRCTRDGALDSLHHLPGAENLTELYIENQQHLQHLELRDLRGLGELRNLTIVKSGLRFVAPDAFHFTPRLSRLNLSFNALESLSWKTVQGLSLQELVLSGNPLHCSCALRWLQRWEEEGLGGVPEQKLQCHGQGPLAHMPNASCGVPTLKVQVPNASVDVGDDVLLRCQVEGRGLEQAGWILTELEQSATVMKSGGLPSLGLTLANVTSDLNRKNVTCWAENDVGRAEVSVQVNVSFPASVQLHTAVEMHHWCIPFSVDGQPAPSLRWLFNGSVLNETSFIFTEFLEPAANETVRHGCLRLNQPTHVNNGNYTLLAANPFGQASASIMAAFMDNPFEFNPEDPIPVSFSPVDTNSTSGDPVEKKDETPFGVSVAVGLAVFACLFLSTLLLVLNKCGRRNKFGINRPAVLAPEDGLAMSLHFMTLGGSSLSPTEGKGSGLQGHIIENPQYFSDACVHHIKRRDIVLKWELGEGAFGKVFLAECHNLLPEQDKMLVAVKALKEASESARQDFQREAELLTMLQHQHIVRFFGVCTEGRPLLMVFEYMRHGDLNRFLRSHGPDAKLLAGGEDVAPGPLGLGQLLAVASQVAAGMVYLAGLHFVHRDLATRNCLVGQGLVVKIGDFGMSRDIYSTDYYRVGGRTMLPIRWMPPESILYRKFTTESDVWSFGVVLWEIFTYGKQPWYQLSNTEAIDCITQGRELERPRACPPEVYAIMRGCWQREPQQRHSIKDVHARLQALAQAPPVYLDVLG

[2] = molecular target: T1, human Ig1,2 TrkA (recombinant D4-D5 …); assay: SPR (Biacore X-100) kinetic analysis
[3] = molecular target: T4, mouse Ig1,2 TrkA (recombinant D4-D5 domain of murine TrkA receptor) (mouse, UniProt Q3UFB7 193-413); assay: SPR (Biacore X-100) kinetic analysis
T4 construct: also called mTrkA Ig1,2
T4 sequence (Q3UFB7 other isoform, or with tags, fused parts or gaps limits assumed): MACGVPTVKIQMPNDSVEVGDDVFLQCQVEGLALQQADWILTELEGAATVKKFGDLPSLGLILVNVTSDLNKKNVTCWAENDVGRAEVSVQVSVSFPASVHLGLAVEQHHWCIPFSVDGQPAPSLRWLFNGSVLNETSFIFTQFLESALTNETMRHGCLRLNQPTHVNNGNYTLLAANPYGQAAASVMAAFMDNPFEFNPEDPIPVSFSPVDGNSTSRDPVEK

[4] = molecular target: T1, human Ig1,2 TrkA (recombinant D4-D5 …); assay: SPR (Biacore X-100); scFv immobilised on CM5 chip, human Ig1,2 TrkA injected
Procedure: (§1) The antibodies were also shown to be specific for hTrkA and mTrkA by relative binding to the BIACore sensor chips coated with the appropriate antigen. Antibodies were immobilized by ammine coupling to Biosensor CM5 sensorchips (Pharmacia) according to the manufacturers instructions. Anti-TrkA scFv proteins were diluted at 20-50 μg/ml in suitable pre-concentration buffer (at least 2 pH unit below the pI of the scFv in order to get a net positive charge), chosen among the Acetate buffers. The scFvs were immobilized at 100 RU to get a low density immobilization. As binder, the recombinant protein consisting of D4-D5 domain of human and murine TrkA receptor (hTrkA Ig1,2 and mTrkA Ig1,2 respectively) were injected over the immobilized scFv with a contact time of 60 seconds and with a dissociation time of 400 seconds and the assay workflow placed 5 serial dilutions of the TrkA Ig1,2 (starting in the micromolar range and diluting 1:2 each time). The regeneration condition were mild (contact time 30 seconds, 10 mM Glycine pH2). On the basis of the resulting sensorgrams, the concentrations of TrkA Ig1,2 were adjusted to optimize, contact time, dissociation time and regeneration. Data were analysed by Bioevaluation Software (see results on Table II and Table III). The quality of the data fitting were checked by the value of Chi² and of the U-value.
(§2) We have carried out surface plasmon resonance (SPR) analyses to determine the binding kinetics of a panel of isolated anti-TrkA scFvs (SEQ ID NOs: 1, 2, 3, 4, 5, 6, 7, 8, 9, 10, 11, 12, 13, 14, 15 and 16). The scFvs were immobilized on a CM5 chip followed by injections at various concentration of human and murine Ig 1,2 TrkA (SEQ ID NO: 78) and mouse Ig1,2 TrkA (SEQ ID NO: 79).

[5] = molecular target: T4, mouse Ig1,2 TrkA (recombinant D4-D5 …); assay: SPR (Biacore X-100); scFv immobilised on CM5 chip, mouse Ig1,2 TrkA injected
Procedure: as §1, §2

human TrkB immunoadhesin = molecular target: T5, human TrkB immunoadhesin (human; Camelus dromedarius, UniProt Q16620 32-430); assay: specificity ELISA, antigens coated at 2 µg/mL, scFv at 50 ug/mL (upper panel) and 5 ug/mL (lower panel), OD 450 nm
T5 construct: extracellular domain; also called hTrkB-Fc; TrkB immunoadhesins; not shown: Fc portion (immunoglobulin heavy chain constant region) of IgG2a camel antibody (Camelus dromedarius)
T5 sequence (Q16620 32-430): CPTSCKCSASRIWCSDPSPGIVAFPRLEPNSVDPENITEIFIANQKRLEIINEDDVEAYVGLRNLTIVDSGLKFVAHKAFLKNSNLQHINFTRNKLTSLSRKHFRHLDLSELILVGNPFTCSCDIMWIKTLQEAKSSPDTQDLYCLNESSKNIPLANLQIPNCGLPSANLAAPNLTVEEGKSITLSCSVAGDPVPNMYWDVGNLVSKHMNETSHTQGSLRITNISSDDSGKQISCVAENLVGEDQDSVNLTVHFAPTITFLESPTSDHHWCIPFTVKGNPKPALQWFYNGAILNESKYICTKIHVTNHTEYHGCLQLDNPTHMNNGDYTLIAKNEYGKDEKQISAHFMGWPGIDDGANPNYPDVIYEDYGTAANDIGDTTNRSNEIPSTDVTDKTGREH
Procedure: (§3) FIG. 3. Specificity ELISA of isolated anti-TrkA scFvs versus human TrkA immunoadhesin (hTrkA-Fc), human TrkB immunoadhesins (hTrkB-Fc), human TrkC immunoadhesins (hTrkC-Fc) and human p75 immunoadhesins (hp75-Fc). Human antigens were coated at 2 μg/mL. Anti-TrkA scFvs were used at 50 μg/mL (upper panel) and/or 5 μg/mL (lower panel). The mean absorbance at 450 nm of the experiments performed in duplicate wells is shown with SD indicated by the bars.

human TrkC immunoadhesin = molecular target: T6, human TrkC immunoadhesin (human; Camelus dromedarius, UniProt Q16288 32-429); assay: as above
T6 construct: extracellular domain; also called hTrkC-Fc; TrkC immunoadhesins; not shown: Fc portion (immunoglobulin heavy chain constant region) of IgG2a camel antibody (Camelus dromedarius)
Procedure: as §3

human p75 immunoadhesin = molecular target: T2, human p75 immunoadhesin; assay: as above
Procedure: as §3

[6] = molecular target: T3, human TrkA receptor (native, on TF-1 …); assay: chip-based flow cytometry (Agilent Bioanalyzer 2100) on TF-1 cells expressing human TrkA; scFv at 5 µg/ml per paragraph 159
Procedure: FIG. 5. FACS analysis performed with Bioanalyzer 2100. A cell fluid chip-based fluorescent cytometric assay that runs on Bioanalyzer 2100 (Agilent) for fast characterization of small population cell phenotypes was assessed. The assay determines the expression of specific cell surface markers. In this experiment, the specificity of scFvs on TF-1 cell line expressing human TrkA receptor was assessed. Six samples can be analyzed on each chip in one automated process. Results were in good agreement with conventional flow cytometry in quantisation.
10⁶ cells/sample=tot: 6×10⁶ cells are first centrifuged at 350 g for 5 min at room temperature (RT) and wash with 12 ml of Staining Buffer (SB) at RT. The pellet was resuspended in 3 ml of SB at 4° C. and aliquot 0.5 ml of suspension in 1.5 ml conical tubes. Cells were centrifuged again at 350 g for 5 min at 4° C. and the pellet was resuspended in 1 ml HBSS at 4° C. 125 μl 16% p-formaldehyde (final conc 1.7%) was added into each tube and then the sample was incubated for 10 min at 4° C. on tube rotator. After 10 minutes, 75 μl of 10% detergent solution-Tween 20 (final conc 0.6%) was added and the samples were then incubated for 10 min at 4° C. on tube rotator. Samples were then washed once with FACS Buffer (0.8 ml/sample) at 4° C. and then centrifuged at 350 g for 5 min at 4° C. Cells were resuspended with 80 μl/sample of FACS Buffer. 20 μl of a 5× primary antibody solution were added (final concentration of scFvs is 5 μg/ml). After incubation for 1 hour at 4° C. on tube rotator samples were washed with FACS Buffer (0.5 ml/sample) at 4° C. and then centrifuged 5 min at 350 g at 4° C. Cells were resuspended with 80 μl/sample of FACS Buffer. 20 μl of a 5× secondary antibody solution were added. Final concentration of mouse anti-V5 antibody is 0.20 μg/ml. The samples were incubated for 1 hour at 4° C. on tube rotator. After incubation for 1 hour at 4° C. on tube rotator samples were washed with FACS Buffer (0.5 ml/sample) at 4° C. and then centrifuged 5 min at 350 g at 4° C. Cells were resuspended with 80 μl/sample of FACS Buffer. 20 μl of a 5× tertiary antibody solution were added. Final concentration of anti-mouse IgG-Cy5 is 4 μg/ml (1:250 diluted). The samples were incubated for 1 hour at 4° C. on tube rotator.

| Binder | IC50 of inhibition of NGF-mediated TF1 cell proliferation (MTT assay) [1] | Kd [2] [nM] | koff [2] [s⁻¹] | kon [2] [M⁻¹ s⁻¹] | Kd [3] [nM] | koff [3] [s⁻¹] | kon [3] [M⁻¹ s⁻¹] | Kd [4] [nM] | koff [4] [s⁻¹] | kon [4] [M⁻¹ s⁻¹] | Kd [5] [nM] | koff [5] [s⁻¹] | kon [5] [M⁻¹ s⁻¹] | binding result (human TrkB immunoadhesin) | binding result (human TrkC immunoadhesin) | binding result (human p75 immunoadhesin) | binding result [6] |
| --- | --- | --- | --- | --- | --- | --- | --- | --- | --- | --- | --- | --- | --- | --- | --- | --- | --- |
| CRB0089_IgG4 (antibody, V domains shown, Whole human IgG4 made in CHO-S cells; also called mAb CRB0089_IgG4; anti-TrkA CRB0089_IgG4) VH: QVQLQESGPGLVKPSQTLSLTCAISGDSVSSNSAAWNWIRQSPSRGLEWLGRTFHRSRWYNEYPVSVRSRITINPDTSNNQFTLQLNSVTPDDTAVYYCARAPVAGLTFDIWGQGTMVTVSS VL: QTVVTQEPSVSGAPGQRVTISCTGSSSIIGAGYEVHWYQHLPGTAPKLLIYDSINRPSGVPDRFSGSKSGTSASLAITGLQAEDEADYYCQSSAIFGGGTKLTVL | ~43 nM and ~40 nM | 16.1 | 0.000103 | 6420 | 27.6 | 0.000136 | 4950 |  |  |  |  |  |  |  |  |  |  |
| anti-TrkA scFv CRB0072 (scFv, From hSPLINT_09 selection) scFv: DIQMTQSPISLSATVGDRVTITCRASQSIGRYLNWYQQKPGKAPKLLIYGASSLESGVPSRFSGSGSGTVFTLTISGLQPEDFATYCCQQSHSTAWTFGQGTKVEIKSGGSTSGSGKPGSGEGSSGTEVQLVETGGGLVQPGSSLRLSCATSGFTFINYGVHWVRQPPGKGLEWVASIWYEGSNEKYADSVKGRFTISRDNSRYTLHLQLNSLRAEDTADYYCVRDRGTGDYRNSRFYYGMDVWGQGTTVTVSS |  |  |  |  |  |  |  | 2.04 | 7.48e-06 | 3680 | 17 | 4.93e-05 | 2910 | no binding (tested: 50 ug/mL) | no binding (tested: 50 ug/mL) | no binding (tested: 50 ug/mL) | binds |
| anti-TrkA scFv CRB0088 (scFv, From hSPLINT_09 selection) scFv: QPVLTQSPPASASLGASVKLTCTLSSGHSSYAIAWHQQQPEKGPRYLMKVNSDGSHNKGDGIPDRFSGSRSGAERYLTISSLHSEDEADYYCQTWGAGGVVFGGGTKLTVLSGGSTSGSGKPGSGEGSSGTEVQLLESGGGLVQPGGSLRLSCAASGFTFSDHYMDWVRQAPGKGLEWVGRIRNKANSYTTEYAASVKGRFTISRDDSKKTLYLQMTSLKTDDTALYYCARDLGASDAFDLWGQGTMVTVSS |  |  |  |  |  |  |  | 1.16 | 3.2e-06 | 2760 | 38.5 | 0.000131 | 3410 | no binding (tested: 50 ug/mL) | no binding (tested: 50 ug/mL) | no binding (tested: 50 ug/mL) | binds |
